Source: patent US9981050B2, “Bispecific peptide conjugate and radioactive bispecific peptide imaging agent” (Institute of Nuclear Energy Research, Atomic Energy …, priority 2015, dated 2018)
Where two headings read alike, the source gives them in different places. Values belong to the molecule of their own block, whether it stands above or below them.

What was measured:
[1] = PET/CT imaging in NCI-H292 tumor bearing nude mice; type: in vivo; details: mouse, iv, subcutaneous NCI-H292 tumor, 11 MBq via tail vein, 2 hours post-injection, PET/CT quantified by PMODE, read-out: tumor/muscle ratio (T/M ratio)
Procedure: In this example, the bispecific peptide conjugate (that is, ^68Ga-NOTA-RGD-GE11) tagged with a radioactive isotope prepared in Example 2 was tested and was compared with monospecific peptide conjugate ^68Ga-NOTA-GE11. The right thigh of nude mice was subcutaneously inoculated with 5×10^6 NCI-H292 tumor cells. The tumors were allowed to grow for about 4 weeks until the tumor size reached 0.5 cm diameter. Then, the animals were anesthetized with isoflorane, injected with 11 MBq ^68Ga-NOTA-RGD-GE11 or ^68Ga-NOTA-GE11 (0.1 mL) via the tail vein, and imaged for 2 hours by Positron Emission Tomography/Computed Tomography (PET/CT). The images were quantified by using PMODE Software.

EGFR in A549 tumor cells = target: T1, EGFR in A549 tumor cells (Homo sapiens, UniProt P00533); test: Specific binding assay: inhibition of anti-EGFR antibody binding to A549 tumor cells; type: cell-based; details: various concentrations, 2 hrs, absorbance decreases with increasing concentration
T1 construct: endogenous in cells; host or cells: A549 tumor cells
Procedure: (§1) In this example, the bispecific peptide conjugate (that is, NOTA-c(RGDyk)-cys-6-ahx-GE11) prepared in Example 1 was assayed.
(§2) A549 tumor cells were plated in a 96-well plate (5×10^4 cells/well). Various concentrations of NOTA-c(RGDyk)-cys-6-ahx-GE11 and anti-EGFR antibody or anti-integrin αV antibody were added and reacted for 2 hrs. Then, a secondary antibody and ABTS were added and reacted for 8 hrs. The antibody binding was assayed by a fluorimeter.

[2] = target: T2, integrin αV in A549 tumor cells (Homo sapiens, UniProt P05106+P06756); test: Specific binding assay: inhibition of anti-integrin αV antibody binding to A549 tumor cells; type: cell-based; details: various concentrations, 2 hrs, absorbance decreases with increasing concentration
T2 construct: endogenous in cells; host or cells: A549 tumor cells
T2 sequence (P06756 31-889 limits assumed): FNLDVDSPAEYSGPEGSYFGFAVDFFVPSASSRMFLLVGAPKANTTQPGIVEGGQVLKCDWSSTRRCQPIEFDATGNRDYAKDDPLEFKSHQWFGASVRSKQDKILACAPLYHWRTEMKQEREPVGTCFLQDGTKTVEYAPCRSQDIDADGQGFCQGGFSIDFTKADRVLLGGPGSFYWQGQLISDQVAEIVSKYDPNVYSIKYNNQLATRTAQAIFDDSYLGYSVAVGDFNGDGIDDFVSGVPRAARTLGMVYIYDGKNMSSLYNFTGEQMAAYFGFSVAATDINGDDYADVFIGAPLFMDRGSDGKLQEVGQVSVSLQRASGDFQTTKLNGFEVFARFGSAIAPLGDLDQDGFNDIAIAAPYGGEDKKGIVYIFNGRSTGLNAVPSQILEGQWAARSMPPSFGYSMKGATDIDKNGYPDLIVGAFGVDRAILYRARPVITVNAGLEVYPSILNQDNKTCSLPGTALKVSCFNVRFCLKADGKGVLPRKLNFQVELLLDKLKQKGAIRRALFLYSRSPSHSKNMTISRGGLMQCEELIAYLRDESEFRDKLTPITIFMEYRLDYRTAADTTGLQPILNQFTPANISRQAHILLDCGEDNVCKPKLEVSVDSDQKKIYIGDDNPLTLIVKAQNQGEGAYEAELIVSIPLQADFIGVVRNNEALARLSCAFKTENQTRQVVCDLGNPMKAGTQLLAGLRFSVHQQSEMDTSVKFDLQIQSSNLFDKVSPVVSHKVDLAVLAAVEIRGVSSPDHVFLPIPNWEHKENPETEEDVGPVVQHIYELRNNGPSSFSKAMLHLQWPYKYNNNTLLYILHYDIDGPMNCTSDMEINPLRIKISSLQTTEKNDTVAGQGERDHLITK
T2 sequence (P06756 891-1048 partner limits assumed): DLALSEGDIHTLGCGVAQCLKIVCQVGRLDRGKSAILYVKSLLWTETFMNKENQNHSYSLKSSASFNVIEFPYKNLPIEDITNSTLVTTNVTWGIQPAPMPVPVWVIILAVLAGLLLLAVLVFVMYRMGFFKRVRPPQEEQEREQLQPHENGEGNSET
T2 sequence (P05106 27-788): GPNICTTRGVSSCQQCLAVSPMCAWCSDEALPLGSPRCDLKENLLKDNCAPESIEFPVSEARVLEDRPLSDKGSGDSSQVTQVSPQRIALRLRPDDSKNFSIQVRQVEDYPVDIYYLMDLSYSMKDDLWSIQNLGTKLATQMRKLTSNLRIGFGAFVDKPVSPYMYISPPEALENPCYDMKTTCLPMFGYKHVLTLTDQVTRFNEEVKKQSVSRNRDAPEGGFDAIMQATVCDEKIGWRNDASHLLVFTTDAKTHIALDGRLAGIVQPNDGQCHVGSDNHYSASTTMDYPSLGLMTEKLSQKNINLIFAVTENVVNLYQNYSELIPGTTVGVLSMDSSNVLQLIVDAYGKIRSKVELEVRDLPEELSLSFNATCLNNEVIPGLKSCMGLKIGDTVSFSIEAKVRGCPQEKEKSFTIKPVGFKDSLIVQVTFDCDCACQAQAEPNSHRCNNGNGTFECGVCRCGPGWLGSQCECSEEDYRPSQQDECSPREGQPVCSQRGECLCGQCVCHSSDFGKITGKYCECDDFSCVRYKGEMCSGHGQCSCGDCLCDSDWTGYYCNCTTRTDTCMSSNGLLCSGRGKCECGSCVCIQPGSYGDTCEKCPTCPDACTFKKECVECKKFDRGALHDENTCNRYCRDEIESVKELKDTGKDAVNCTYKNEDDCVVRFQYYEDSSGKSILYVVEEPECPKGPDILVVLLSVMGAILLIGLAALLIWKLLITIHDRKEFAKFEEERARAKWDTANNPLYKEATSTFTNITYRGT
Procedure: as §1, §2

Molecule: CC[C@H](C)[C@H](NC(=O)[C@@H](NC(=O)[C@H](CC(N)=O)NC(=O)[C@H](CCC(N)=O)NC(=O)[C@@H]1CCCN1C(=O)[C@@H](NC(=O)[C@H](Cc1ccc(O)cc1)NC(=O)CNC(=O)[C@H](Cc1ccc(O)cc1)NC(=O)[C@H](Cc1c[nH]c2ccccc12)NC(=O)[C@H](Cc1c[nH]cn1)NC(=O)[C@H](Cc1ccc(O)cc1)NC(=O)CCCCCNC(=O)[C@H](CS)NC(=O)CN1CCN(CC(=O)O)CCN(CC(=O)O)CC1)[C@@H](C)O)C(C)C)C(=O)O [^68Ga-NOTA-GE11, metal not drawn, reference compound]
tissue to tissue ratio at 2 h ([1]; in vivo): 1.87

Molecule: CC[C@H](C)[C@H](NC(=O)[C@@H](NC(=O)[C@H](CC(N)=O)NC(=O)[C@H](CCC(N)=O)NC(=O)[C@@H]1CCCN1C(=O)[C@@H](NC(=O)[C@H](Cc1ccc(O)cc1)NC(=O)CNC(=O)[C@H](Cc1ccc(O)cc1)NC(=O)[C@H](Cc1c[nH]c2ccccc12)NC(=O)[C@H](Cc1c[nH]cn1)NC(=O)[C@H](Cc1ccc(O)cc1)NC(=O)CCCCCNC(=O)[C@H](CSC1CC(=O)N(CCC(=O)NCCCC[C@@H]2NC(=O)[C@@H](Cc3ccc(O)cc3)NC(=O)[C@H](CC(=O)O)NC(=O)CNC(=O)[C@H](CCCNC(=N)N)NC2=O)C1=O)NC(=O)CN1CCN(CC(=O)O)CCN(CC(=O)O)CC1)[C@@H](C)O)C(C)C)C(=O)O (stereo partly shown) [^68Ga-NOTA-RGD-GE11, metal not drawn]
tissue to tissue ratio at 2 h ([1]; tumor / muscle, total radioactivity): 4.31

inhibition of the binding of the anti-EGFR antibody to tumor cells (EGFR in A549 tumor cells): can effectively inhibit the binding
inhibition of the binding of the anti-integrin αV antibody to tumor cells [2]: can effectively inhibit the binding
Molecule: NOTA-c(RGDyk)-cys-6-ahx-GE11
